Results published in patent US20210230570.
Where a chain is given by its changes, count along the chain named. Names and notes keep the numbering of the source.

B1: FIXa K293E/R338E/R403E (protein)
chain 1: YNSGKLEEFVQGNLERECMEEKCSFEEAREVFENTERTTEFWKQYVDGDQCESNPCLNGGSCKDDINSYECWCPFGFEGKNCELDVTCNIKNGRCEQFCKNSADNKVVCSCTEGYRLAENQKSCEPAVPFPCGRVSVSQTSKLTR
chain 2: VVGGEDAKPGQFPWQVVLNGKVDAFCGGSIVNEKWIVTAAHCVETGVKITVVAGEHNIEETEHTEQKRNVIRIIPHHNYNAAINKYNHDIALLELDEPLVLNSYVTPICIADEEYTNIFLKFGSGYVSGWGRVFHKGRSALVLQYLRVPLVDRATCLESTKFTIYNNMFCAGFHEGGRDSCQGDSGGPHVTEVEGTSFLTGIISWGEECAMKGKYGIYTKVSEYVNWIKEKTKLT
B2: FIXa R318Y/R338E/R403E/E410N (protein)
chain 1: B1 chain 1
chain 2: B1 chain 2 with E113K, R138Y, E230N
B3: FIXa-Y155F/R338E/R403E/E410N (protein)
chain 1: B1 chain 1
chain 2: B1 chain 2 with E113K, E158R, R178E, E230N
B4: FIXa R318Y/R338E/E410N (protein)
chain 1: B1 chain 1
chain 2: B1 chain 2 with E113K, R138Y, E223R, E230N
B5: FIXa R318Y/R338E/R403E (protein)
chain 1: B1 chain 1
chain 2: B1 chain 2 with E113K, R138Y
B6: FIXa-Y155F/K247N/N249S/R318Y/R338E/R403E (protein)
chain 1: B1 chain 1
chain 2: B1 chain 2 with K67N, N69S, E113K, R138Y
B7: FIXa-Y155F/R318Y/R338E/R403E (protein)
chain 1: B1 chain 1
chain 2: B1 chain 2 with E113K, R138Y
B8: FIXa variant D203N/F205T/R318Y (mature FIX numbering) (protein)
chain 1: B1 chain 1
chain 2: B1 chain 2 with D23N, F25T, E113K, R138Y, E158R, E223R
B9: FIXa variant A103N/N105S/R318Y/R338E/R403E/E410N (mature FIX numbering) (protein)
chain 1: B1 chain 1 with A103N, N105S
chain 2: B1 chain 2 with E113K, R138Y, E230N
B10: FIXa variant D203N/F205T/E410N (mature FIX numbering) (protein)
chain 1: B1 chain 1
chain 2: B1 chain 2 with D23N, F25T, E113K, E158R, E223R, E230N
B11: FIXa variant A103N/N105S/Y155F/R318Y/R338E/R403E/E410N (mature FIX numbering) (protein)
chain 1: B1 chain 1 with A103N, N105S
chain 2: B1 chain 2 with E113K, R138Y, E230N
B12: FIXa variant D104N/K106S/Y155F/R318Y/R338E/R403E/E410N (mature FIX numbering) (protein)
chain 1: B1 chain 1 with D104N, K106S
chain 2: B1 chain 2 with E113K, R138Y, E230N
B13: FIXa variant D104N/K106S/R318Y/R338E/R403E/E410N (mature FIX numbering) (protein)
chain 1: B1 chain 1 with D104N, K106S
chain 2: B1 chain 2 with E113K, R138Y, E230N
B14: FIXa variant D203N/F205T/R338E (mature FIX numbering) (protein)
chain 1: B1 chain 1
chain 2: B1 chain 2 with D23N, F25T, E113K, E223R
B15: FIXa variant R318Y/R403E/E410N (mature FIX numbering) (protein)
chain 1: B1 chain 1
chain 2: B1 chain 2 with E113K, R138Y, E158R, E230N
B16: FIXa variant R318Y/R338E/E410N (mature FIX numbering) (protein)
chain 1: B1 chain 1
chain 2: B1 chain 2 with E113K, R138Y, E223R, E230N
B17: FIXa variant D203N/F205T/R338E/R403E (mature FIX numbering) (protein)
chain 1: B1 chain 1
chain 2: B1 chain 2 with D23N, F25T, E113K
B18: FIXa variant D203N/F205T/R318Y/E410N (mature FIX numbering) (protein)
chain 1: B1 chain 1
chain 2: B1 chain 2 with D23N, F25T, E113K, R138Y, E158R, E223R, E230N
B19: FIXa variant D104N/K106S/R318Y/R338E/E410N (mature FIX numbering) (protein)
chain 1: B1 chain 1 with D104N, K106S
chain 2: B1 chain 2 with E113K, R138Y, E223R, E230N
B20: FIXa-Y155F/R318Y/R403E/E410N (protein)
chain 1: B1 chain 1
chain 2: B1 chain 2 with E113K, R138Y, E158R, E230N
B21: FIXa variant Y155F/R318Y/R338E/R403E/E410N (mature FIX numbering) (protein)
chain 1: B1 chain 1
chain 2: B1 chain 2 with E113K, R138Y, E230N
B22: FIXa-D104N/K106S/Y155F/K247N/N249S/R318Y/R338E/R403E/E410N (protein)
chain 1: B1 chain 1 with D104N, K106S
chain 2: B1 chain 2 with K67N, N69S, E113K, R138Y, E230N
B23: FIXa variant Y155F/R318Y/R338E/E410N (mature FIX numbering) (protein)
chain 1: B1 chain 1
chain 2: B1 chain 2 with E113K, R138Y, E223R, E230N
B24: FIXa variant K228N/R338E/R403E (mature FIX numbering) (protein)
chain 1: B1 chain 1
chain 2: B1 chain 2 with K48N, E113K
B25: FIXa variant R318Y/R338E/R403E/E410N (mature FIX numbering) (protein)
chain 1: B1 chain 1
chain 2: B1 chain 2 with E113K, R138Y, E230N
B26: FIXa variant D203N/F205T/K228N (mature FIX numbering) (protein)
chain 1: B1 chain 1
chain 2: B1 chain 2 with D23N, F25T, K48N, E113K, E158R, E223R
B27: FIXa variant Y155F/R318Y/R403E/E410N (mature FIX numbering) (protein)
chain 1: B1 chain 1
chain 2: B1 chain 2 with E113K, R138Y, E158R, E230N
B28: FIXa variant D203N/F205T/R338A (mature FIX numbering) (protein)
chain 1: B1 chain 1
chain 2: B1 chain 2 with D23N, F25T, E113K, E158A, E223R
B29: FIXa variant K228N/R318Y/E410N (mature FIX numbering) (protein)
chain 1: B1 chain 1
chain 2: B1 chain 2 with K48N, E113K, R138Y, E158R, E223R, E230N

target: Factor X, P00742
Sequence (P00742 whole entry, looked up): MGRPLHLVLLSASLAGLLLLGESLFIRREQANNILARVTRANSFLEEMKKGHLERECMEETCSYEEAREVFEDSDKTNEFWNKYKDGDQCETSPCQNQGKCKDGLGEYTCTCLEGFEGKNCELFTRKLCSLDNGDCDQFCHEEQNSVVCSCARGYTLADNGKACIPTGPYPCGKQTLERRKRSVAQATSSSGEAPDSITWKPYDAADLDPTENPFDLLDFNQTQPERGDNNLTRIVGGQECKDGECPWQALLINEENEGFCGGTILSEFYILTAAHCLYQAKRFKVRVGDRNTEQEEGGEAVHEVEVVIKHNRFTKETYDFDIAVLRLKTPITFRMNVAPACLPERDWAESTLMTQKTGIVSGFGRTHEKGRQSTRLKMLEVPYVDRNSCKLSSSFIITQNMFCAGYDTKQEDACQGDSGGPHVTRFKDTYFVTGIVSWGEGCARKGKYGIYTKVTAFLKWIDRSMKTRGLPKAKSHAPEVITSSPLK

| Protein | kcat [s⁻¹] | % of WT (kcat/KM) [%] | kcat/KM [M⁻¹ s⁻¹] |
| --- | --- | --- | --- |
| B1 | 0.8 | – | – |
| B2 | 5 | – | – |
| B3 | – | 401 | 1.8e+08 |
| B4 | 4.6 | – | – |
| B5 | 3.5 | – | – |
| B6 | – | – | 9.5e+07 |
| B7 | – | 189 | 8.7e+07 |

target: Factor X (FX), P00742
Sequence (P00742 whole entry, looked up): as above

| Protein | KM of FX activation by FIXa in the Xase complex (FVIIIa, PC/PS vesicles, Ca2+) [µM] | kcat/KM (M^-1s^-1), FX activation by FIXa in the Xase complex [M⁻¹ s⁻¹] | kcat/KM [M⁻¹ s⁻¹] | KM [µM] | kcat of FX activation by FIXa in the Xase complex (FVIIIa, PC/PS vesicles, Ca2+) [s⁻¹] |
| --- | --- | --- | --- | --- | --- |
| B8 | 0.0475 | – | – | – | – |
| B9 | 0.0447 | – | – | – | – |
| B10 | 0.0455 | – | – | – | – |
| B11 | 0.0507 | – | – | – | – |
| B12 | 0.048 | – | – | – | – |
| B13 | 0.0385 | – | – | – | – |
| B14 | 0.0241 | – | – | – | – |
| B15 | 0.0942 | – | – | – | – |
| B16 | 0.0139 | – | – | – | – |
| B17 | 0.0511 | – | – | – | – |
| B18 | 0.0457 | – | – | – | – |
| B19 | 0.0189 | – | – | – | – |
| B20 | – | 3.6e+07 | – | – | – |
| B21 | 0.0304 | – | – | – | – |
| B22 | – | – | 1.3e+08 | – | – |
| B23 | 0.016 | – | – | – | – |
| B24 | 0.0592 | – | – | – | – |
| B25 | 0.0432 | – | – | – | – |
| B6 | – | – | – | 0.0673 | 5.7 |
| B26 | 0.0399 | – | – | – | – |
| B27 | 0.111 | – | – | – | – |
| B28 | 0.0385 | – | – | – | – |
| B29 | 0.042 | – | – | – | – |
